Columns and labels:
[1] = tested on: Staphylococcus aureus ATCC 25923; experiment: Determination of MIC and MBC, Staphylococcus aureus; assay type: cell-based
Description: (§1) A series of test tubes was prepared containing the culture broth inoculated with the test micro-organism and the substance to be tested was introduced at decreasing scalar concentrations. […] The test tubes in which the microbial population developed were then determined by observing visually the turbidity that is indicative of growth. Test tubes in which the substance is present at a sufficient concentration to inhibit growth remain clear. When the nature itself of the sample prevents visual reading or if it is wished to determine whether the lack of development is due to a microbiostatic or microbicidal action, transfers are made to appropriate agar media for confirmation. The concentration of sample at which growth of the micro-organisms is inhibited is considered to be the Minimum Inhibitory Concentration (MIC), while that at which viable micro-organisms are no longer present is considered to be the Minimum Bactericidal Concentration (MBC) The antibacterial activity of these substances against Staphylococcus aureus acnes ATCC 25923 and Staphylococcus epidermidis ATCC 12228 was tested according to the above-described method.

[2] = tested on: Staphylococcus epidermidis ATCC 12228; experiment: Determination of MIC and MBC, Staphylococcus epidermidis; assay type: cell-based
Description: as §1

B1: Lactoferrin (protein, UniProt P02788 20-710, looked up)
Lactotransferrin: GRRRSVQWCAVSQPEATKCFQWQRNMRKVRGPPVSCIKRDSPIQCIQAIAENRADAVTLDGGFIYEAGLAPYKLRPVAAEVYGTERQPRTHYYAVAVVKKGGSFQLNELQGLKSCHTGLRRTAGWNVPIGTLRPFLNWTGPPEPIEAAVARFFSASCVPGADKGQFPNLCRLCAGTGENKCAFSSQEPYFSYSGAFKCLRDGAGDVAFIRESTVFEDLSDEAERDEYELLCPDNTRKPVDKFKDCHLARVPSHAVVARSVNGKEDAIWNLLRQAQEKFGKDKSPKFQLFGSPSGQKDLLFKDSAIGFSRVPPRIDSGLYLGSGYFTAIQNLRKSEEEVAARRARVVWCAVGEQELRKCNQWSGLSEGSVTCSSASTTEDCIALVLKGEADAMSLDGGYVYTAGKCGLVPVLAENYKSQQSSDPDPNCVDRPVEGYLAVAVVRRSDTSLTWNSVKGKKSCHTAVDRTAGWNIPMGLLFNQTGSCKFDEYFSQSCAPGSDPRSNLCALCIGDEQGENKCVPNSNERYYGYTGAFRCLAENAGDVAFVKDVTVLQNTDGNNNEAWAKDLKLADFALLCLDGKRKPVTEARSCHLAMAPNHAVVSRMDKVERLKQVLLHQQAKFGRNGSDCPDKFCLFQSETKNLLFNDNTECLARLHGKTTYEKYLGPQYVAGITNLKKCSTSPLLEACEFLRK
With B1 the MIC [1] was >20 mg/mL and the MIC [2] was >20 mg/mL.

Source: patent publication US20190175467A1, “COMPOSITION FOR THE TREATMENT OF ACNE” (ROTTAPHARM LTD., priority 2015, published 2019)
